Reference: patent publication US9389219B2, “Methods for screening inhibitors of tumor associated protein aggregation” (Vrije Universiteit Brussel, priority 2011, dated 2016)

How the values were obtained:
[1] = test system: WT p53 in U2OS cells; test: Native page analysis of p53 in treated U2OS cells; format: cell-based, human
[2] = test system: WT p53 in U2OS cells; test: Western blot of p53 in U2OS cells treated with chemotherapeutic agents; format: cell-based, human
[3] = test system: mutant p53 inclusions in SaOS-2 cells; test: Nocodazole treatment of transfected SaOS-2 cells, immunofluorescence of aggresomal inclusions; format: cell-based, human
Protocol: To further investigate the aggresomal nature of the observed inclusions, several strategies were adopted. (i) Since the formation of cytoplasmic inclusions in aggresomes is an active process that depends on cytoskeletal integrity,^15 transfected cells were treated with nocodazole, a small chemical that disrupts microtubule assembly. […] (ii) The oligomerization state of p53 in SaOS-2 cells by Blue-Native PAGE (BN-PAGE) and Western blot analysis was also assessed, after cell lysis with a mild detergent (CHAPS). […] In denaturing but non-reducing PAGE, the oligomers and aggregates were dissociated into monomers, and all mutants were expressed at similar levels (FIG. 2, panel c).
Since co-aggregation of proteins depends strictly on sequence similarity rather than hydrophobicity,^27 mutant p53 might also be able to induce co-aggregation and inactivation of p63 and p73. To investigate this hypothesis, mutant p53 and the transactivation domain (TA) of p63 or p73 (TAp63α/TAp73α) were co-expressed in SaOS-2 cells. […]
In the degradation stability test, protein synthesis was blocked by 60 μg/mL cycloheximide 24 hours after transfection, and cells were lysed 0, 3, 6, 12, 24 and 48 hours after the addition of cycloheximide. […] Cells were analyzed by immunofluorescence after 24 hours.

[4] = biological target: p53β (p53-aggregating sequence ILTIITL) (Homo sapiens, UniProt P04637); test: In vitro peptide-binding assay (PepSpot membrane, biotinylated p53β peptide, streptavidin-HRP); conditions: immobilized peptide, p53β self-interaction = 100,00
Excerpt: In order to identify aggregating peptides that match p53β, the human proteome for peptides that have high homology with the p53β peptide were screened. While p53β is unique to p53, in silico analysis identified 56 additional peptides (Table 2) that have no more than two mismatches with p53β. Subsequently, the ability of the selected peptides to interact with p53β using an in vitro peptide-binding assay was empirically determined. Therefore, the 56 selected peptides were spot-synthesized on a cellulose membrane, which was subsequently incubated with biotinylated p53β peptide (FIG. 17, panel b). After washing, the membrane was treated with streptavidine-HRP to detect p53β binding (FIG. 17, panel c). Consistently, the assay successfully identified control peptides including p53β itself, as well as the equivalent sequences from p63 and p73. […] The sequence identity between p53β and their interacting peptide, however, is 75%. Although the function of the proteins from which these 33 interacting peptides stem is often poorly characterized, some interesting cases can be identified. Along with the previously identified p63 and p73, which are inactivated by mutant p53 in cancer, segments were found belonging to Copine-2 (CPNE2), which is a negative regulator of growth factor signaling,^72 methionine synthase (METH), which has been associated to methionine dependence in tumors,^64 CGRF1, a negative regulator of cell proliferation,^67 and caspase-8 (CASP8), a key element for apoptosis, the inactivation of which is associated to chemoresistance and found in a variety of human cancers.^66
Peptides of selected sequences were spot synthesized on PVDF membrane (PepSpot, JPT). The membranes were blocked by 1% BSA in phosphate-buffered saline for 1 hour at room temperature, and then incubated with biotinylated peptide containing the p53-aggregating sequence for 1 hour. After rinsing with 0.1% TWEEN® 20 in 25 mM MES buffer pH 7.0, membranes were incubated in HRP-labeled Streptavidin (Thermo) and visualized with electrochemical luminescence (ECL) system.

| Molecule | Binding intensity (normalized) [4] | also measured |
| --- | --- | --- |
| CC(C)C[C@H](NC(=O)[C@H](Cc1ccccc1)NC(=O)c1cnccn1)B(O)O [Bortezomib] | – | p53 high molecular-weight species (native page) [1]: smear was comparable |
| COc1cccc2c1C(=O)c1c(O)c3c(c(O)c1C2=O)C[C@@](O)(C(=O)CO)C[C@@H]3O[C@H]1C[C@H](N)[C@H](O)[C@H](C)O1 [doxorubicin] | – | p53 high molecular-weight species (native page) [1]: high molecular-weight species of p53; p53 expression level (Western blot) [2]: increased expression levels of p53 |
| COC(=O)Nc1nc2ccc(C(=O)c3cccs3)cc2[nH]1 [nocodazole] | – | vimentin network and aggregates of mutant p53 and p63/p73 ([3]; SaOS-2 cells co-expressing aggregating p53 mutants and TAp63α/TAp73α): disrupted the vimentin network and resulted in diffused punctuate aggregates in the cytoplasm; cellular distribution of mutant p53 ([3]; SaOS-2 cells over-expressing mutant p53): shifted from a punctate to a diffuse cytoplasmic staining |
| ALTFITL (listed as Homo sapiens) [peptide from BN3D2_HUMAN] | 6,47 | – |
| ALVIITL (listed as Homo sapiens) [peptide from CCNI2_HUMAN] | 43,37 | – |
| GLTIPTL (listed as Homo sapiens) | 10,86 | – |
| IKSIITL (listed as Homo sapiens) [peptide from CT132_HUMAN] | 4,39 | – |
| ILDIITS (listed as Homo sapiens) [peptide from ANXA6_HUMAN] | 78,87 | – |
| ILKNITL (listed as Homo sapiens) [peptide from BPA1_HUMAN] | 12,10 | – |
| ILKQITL (listed as Homo sapiens) | 19,84 | – |
| ILLIITD (listed as Homo sapiens) [peptide from CPNE2_HUMAN] | 111,13 | – |
| ILRQITL (listed as Homo sapiens) [peptide from CD2A1_HUMAN] | 14,74 | – |
| ILTDVTL (listed as Homo sapiens) | 5,88 | – |
| ILTICTK (listed as Homo sapiens) | 6,48 | – |
| ILTIGTG (listed as Homo sapiens) | 49,22 | – |
| ILTIITL (listed as Homo sapiens) | 100,00 | – |

| Molecule | Binding intensity (normalized) [4] | also measured |
| --- | --- | --- |
| ILTILCL (listed as Homo sapiens) | 4,81 | – |
| ILTILTE (listed as Homo sapiens) [peptide from CASP8_HUMAN] | 11,43 | – |
| ILTITTP (listed as Homo sapiens) [peptide from CBPC3_HUMAN] | 19,59 | – |
| ILTKSTL (listed as Homo sapiens) [peptide from CND2_HUMAN] | 17,86 | – |
| ILTNTTL (listed as Homo sapiens) [peptide from CC132_HUMAN] | 76,96 | – |
| ILTSQTL (listed as Homo sapiens) | 2,39 | – |
| ITTGITL (listed as Homo sapiens) [peptide from CGRF1_HUMAN] | 36,69 | – |
| ITTVITL (listed as Homo sapiens) [peptide from CD041_HUMAN] | 5,27 | – |
| IVTIITA (listed as Homo sapiens) | 17,21 | – |
| IYTGITL (listed as Homo sapiens) | 32,12 | – |
| KLTIITS (listed as Homo sapiens) [peptide from CM031_HUMAN] | 17,88 | – |
| LLTIETL (listed as Homo sapiens) | 26,55 | – |
| LLTIILL (listed as Homo sapiens) | 3,95 | – |
| LLTIINL (listed as Homo sapiens) | 1,55 | – |
| MLTEITL (listed as Homo sapiens) | 3,03 | – |
| VLTISTL (listed as Homo sapiens) | 6,72 | – |

Now from value to molecule, other results behind:

| Binding intensity (normalized) [4] | Molecule | also measured |
| --- | --- | --- |
| 3,67 | CLTIITG (listed as Homo sapiens) [peptide from TRI18_HUMAN] | – |
| 40,18 | DLTIIDL (listed as Homo sapiens) [peptide from MX2_HUMAN] | – |
| 26,40 | FLTIFTL (listed as Homo sapiens) [peptide from PRA10_HUMAN] | – |
| 8,54 | IEVIITL (listed as Homo sapiens) [peptide from CXL11_HUMAN] | – |
| 8,22 | IHAIITL (listed as Homo sapiens) [peptide from LRC40_HUMAN] | – |
| 9,72 | IKTIINL (listed as Homo sapiens) [peptide from PTPC1_HUMAN] | – |
| 7,89 | ILCDITL (listed as Homo sapiens) [peptide from KLH32_HUMAN] | – |
| 16,85 | ILGKITL (listed as Homo sapiens) [peptide from MP2K4_HUMAN] | – |
| 98,99 | ILIIITL (listed as Homo sapiens) [peptide from P73_HUMAN] | – |
| 92,04 | ILIIVTL (listed as Homo sapiens) [peptide from P63_HUMAN] | – |
| 26,33 | ILQIISL (listed as Homo sapiens) [peptide from PK3C3_HUMAN] | – |
| 15,64 | ILQIITE (listed as Homo sapiens) [peptide from DHX29_HUMAN] | – |
| 79,63 | ILSIDTL (listed as Homo sapiens) [peptide from SPEF2_HUMAN] | – |
| 12,86 | ILTEIHL (listed as Homo sapiens) [peptide from RFC5_HUMAN] | – |
| 6,20 | ILTFKTL (listed as Homo sapiens) [peptide from DYH3_HUMAN] | – |
| 14,09 | ILTIKEL (listed as Homo sapiens) [peptide from ZN830_HUMAN] | – |
| 23,80 | ILTISSL (listed as Homo sapiens) [peptide from KV122_HUMAN] | – |
| 10,20 | ILTIVSL (listed as Homo sapiens) [peptide from DHX33_HUMAN] | – |
| 8,65 | ILTKISL (listed as Homo sapiens) [peptide from HEAT1_HUMAN] | – |
| 16,14 | ILTKPTL (listed as Homo sapiens) [peptide from MYST3_HUMAN] | – |
| 33,34 | ILTKYTL (listed as Homo sapiens) [peptide from NOL11_HUMAN] | – |
| 9,77 | ILTLIEL (listed as Homo sapiens) [peptide from SMG1_HUMAN] | – |
| 17,31 | ILTSGTL (listed as Homo sapiens) [peptide from RTEL1_HUMAN] | – |
| 6,81 | ILVIITR (listed as Homo sapiens) [peptide from LONF2_HUMAN] | – |
| 7,06 | IQTISTL (listed as Homo sapiens) [peptide from SCC4_HUMAN] | – |
| 30,92 | RRPILTIITLEDGS (listed as Homo sapiens) [reference compound] | – |
| 10,18 | TLTISTL (listed as Homo sapiens) [peptide from KV117_HUMAN] | – |
